# Where two headings read alike, the source gives them in different places.
# What was measured:
# Classical Pathway = assay: WEISLAB Complement system Screen, classical pathway MAC (C5b-C9) formation; type: biochemical, human; conditions: human serum; read-out: IC50 (nM) Classical Pathway MAC deposition
# Description: (§1) To identify antibodies that block all 3 complement pathways, antibodies are screened using an enzyme immunoassay for the qualitative determination of functional classical, lectin and alternative complement pathways in human serum using the WEISLAB® Complement system Screen (Svar Life Science AB, Malmö, Sweden).
# (§2) To monitor inhibition of the complement system in human serum, the scFv of the invention or the comparator molecules are tested using an enzyme immunoassay for the qualitative determination of functional classical, lectin and alternative complement pathways in human serum using the WEISLAB® Complement system Screen (Svar Life Science AB, Malmö, Sweden), following the supplier's instructions. The amount of C5b-C9 neoantigen generated is proportional to the functional activity of complement pathways. The scFv of the invention and the comparator molecules are tested in a concentration response curve and the IC50 for the inhibition is calculated using the GraphPadPrism software and a non-linear, 4 parameters curve regression.
# pre-existing ADA = assay: Bridging ELISA screen for pre-existing ADA in sera of healthy human donors; conditions: 10% serum of healthy human donors
# Excerpt: The inventors screen sera of healthy human donors for pre-existing ADA against Clone I using a bridging ELISA. Pre-existing ADAs present in serum from healthy human donors are bound by immobilized anti-C3 scFv. In a next step, ADAs are bound by the same anti-C3 scFv labeled with biotin and are detected by HRP-conjugated Streptavidin.
# The scFv is biotin-labeled using the “Biotin Conjugation Kit (Fast, Type A)-Lightning-Link”-Kit (Expedeon/Abcam) following the suppliers' instructions. The unlabeled scFv is diluted to 0.5 μg/ml in PBS, 50 μl per well transferred to a 96 well plate and incubated overnight at 4° C. On the next day, the 96 well plate is washed with wash buffer (3×320 μl, 0.05% Tween 20 in PBS pH 7.4) and non-specific binding sites are blocked with 300 μl/well blocking buffer (SuperBlock Blocking Buffer; ThermoFisher scientific) for 30 min at room temperature. The wells are then washed with wash buffer (3×320 μl/well)
# Human serum from healthy volunteers is diluted to 10% in PBS, 50 μl/well are added to the 96 well plate and the plate incubated for 1 hr at room temperature. […]
# The plate is washed (3×320 μl/well wash buffer), 50 μl/well TMB substrate (Invitrogen) is added and incubated for 5 min at room temperature. […] The absorption is measured at 450 nm. […]
# Lectin Pathway = assay: WEISLAB Complement system Screen, lectin pathway MAC (C5b-C9) formation; type: biochemical, human; conditions: human serum; read-out: IC50 (nM) Lectin Pathway MAC deposition
# Description: as §1, §2
# Alternative Pathway = assay: WEISLAB Complement system Screen, alternative pathway MAC (C5b-C9) formation; type: biochemical, human; conditions: human serum; read-out: IC50 (nM) Alternative Pathway MAC deposition
# Description: as §1, §2
# human C3 = human C3 (Homo sapiens, UniProt P01024); assay: SPR (Biacore T100) binding to human C3; conditions: for kd C3: off-rate; for ka C3: on-rate
# Chain of human C3 (P01024 23-1663): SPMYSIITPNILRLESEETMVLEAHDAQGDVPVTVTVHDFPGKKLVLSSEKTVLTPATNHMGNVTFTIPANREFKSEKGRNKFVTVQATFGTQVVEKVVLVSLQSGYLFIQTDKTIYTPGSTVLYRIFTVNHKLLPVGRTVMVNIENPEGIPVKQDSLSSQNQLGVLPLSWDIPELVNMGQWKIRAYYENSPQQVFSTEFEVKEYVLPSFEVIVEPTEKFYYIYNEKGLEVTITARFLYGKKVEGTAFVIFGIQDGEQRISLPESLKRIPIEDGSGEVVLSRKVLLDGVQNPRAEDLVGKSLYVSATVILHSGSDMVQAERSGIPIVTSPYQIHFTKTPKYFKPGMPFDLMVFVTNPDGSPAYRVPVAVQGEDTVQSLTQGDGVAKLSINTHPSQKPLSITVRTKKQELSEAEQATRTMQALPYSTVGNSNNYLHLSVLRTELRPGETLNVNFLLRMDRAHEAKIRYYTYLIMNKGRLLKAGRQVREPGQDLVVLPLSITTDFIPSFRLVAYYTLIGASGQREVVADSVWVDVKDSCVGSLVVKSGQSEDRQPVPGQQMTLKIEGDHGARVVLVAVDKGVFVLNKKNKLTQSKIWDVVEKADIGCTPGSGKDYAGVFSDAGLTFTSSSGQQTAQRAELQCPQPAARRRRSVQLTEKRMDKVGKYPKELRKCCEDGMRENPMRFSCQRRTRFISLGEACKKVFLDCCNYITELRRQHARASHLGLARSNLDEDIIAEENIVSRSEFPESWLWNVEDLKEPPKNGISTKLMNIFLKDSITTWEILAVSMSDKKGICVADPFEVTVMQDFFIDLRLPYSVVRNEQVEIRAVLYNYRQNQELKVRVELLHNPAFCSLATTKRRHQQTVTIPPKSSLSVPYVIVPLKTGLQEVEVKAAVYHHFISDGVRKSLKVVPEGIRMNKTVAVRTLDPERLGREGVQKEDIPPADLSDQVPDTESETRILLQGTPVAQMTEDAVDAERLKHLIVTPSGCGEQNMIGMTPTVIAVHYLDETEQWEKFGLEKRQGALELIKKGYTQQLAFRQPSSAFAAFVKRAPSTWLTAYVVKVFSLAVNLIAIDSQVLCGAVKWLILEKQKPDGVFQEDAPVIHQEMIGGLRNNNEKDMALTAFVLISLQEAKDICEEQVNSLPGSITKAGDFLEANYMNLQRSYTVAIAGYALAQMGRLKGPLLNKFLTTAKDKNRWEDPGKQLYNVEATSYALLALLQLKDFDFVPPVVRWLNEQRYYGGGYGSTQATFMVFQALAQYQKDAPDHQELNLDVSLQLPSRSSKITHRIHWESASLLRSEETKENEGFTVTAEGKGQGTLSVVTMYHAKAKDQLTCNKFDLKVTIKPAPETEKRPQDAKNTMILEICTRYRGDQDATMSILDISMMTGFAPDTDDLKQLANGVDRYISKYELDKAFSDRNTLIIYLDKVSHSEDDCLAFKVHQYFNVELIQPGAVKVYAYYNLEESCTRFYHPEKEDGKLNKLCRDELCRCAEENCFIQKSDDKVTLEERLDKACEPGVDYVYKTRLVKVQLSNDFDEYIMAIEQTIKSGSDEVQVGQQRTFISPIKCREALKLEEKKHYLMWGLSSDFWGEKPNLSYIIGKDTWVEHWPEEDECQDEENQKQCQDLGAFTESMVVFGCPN
# Description: (§3) The kinetic parameters of the candidates are determined using a surface plasmon resonance (SPR) and Biacore T100 device. C3 and different variants thereof (Table 19) are immobilized as a ligand on a HC30M SPR sensor chip (XanTec bionanalytics, Germany) using EDC/[…] linking chemistry. Five increasing concentrations of each molecule (analyte) are consecutively injected using the single cycle kinetics (SCK) mode to determine the kinetic parameters. Regeneration between the candidates is done with 10 mM glycine*HCl, 2 M NaCl, pH 3.5. The data is fitted to a 1:1 Langmuir binding model and the kinetic parameters of on-rate (ka), off-rate (kd), and affinity […] were determined.
# [1] = Storage stability at 150 mg/ml, chemical degradation by IEX-HPLC; type: physicochemical; conditions: for Starting charge purity (IEX-HPLC): before storage; for Storage stability, IEX 4 weeks at 25° C. [D %] / Storage stability, IEX 4 weeks at 40° C. [D %]: decrease versus start
# Description: Clone I, clone II and clone III are tested for storage stability. Samples are concentrated to 150 mg/ml (Vivaspin20 centrifugal device, 5 kDa MWCO at 3800×g) and stored at 25° C. and 40° C. for up to 4 weeks. Samples are analyzed for oligomerization (SE-HPLC) and chemical degradation (IEX-HPLC). The starting monomeric purity as determined by SE-HPLC was 99.96% for each clone. The starting charge purity, as determined by IEX-HPLC was 98.07%, 97.16% and 96.76%, respectively for clone I, II and III.
# human C3b = target: T1, human C3b (Homo sapiens, UniProt P01024); assay: SPR (Biacore T100) binding to human C3b; conditions: for kd C3b: off-rate; for ka C3b: on-rate
# T1 construct: C3b is derived from native C3 and is the larger of two elements formed by the cleavage of C3
# T1 sequence (P01024 23-667 limits assumed): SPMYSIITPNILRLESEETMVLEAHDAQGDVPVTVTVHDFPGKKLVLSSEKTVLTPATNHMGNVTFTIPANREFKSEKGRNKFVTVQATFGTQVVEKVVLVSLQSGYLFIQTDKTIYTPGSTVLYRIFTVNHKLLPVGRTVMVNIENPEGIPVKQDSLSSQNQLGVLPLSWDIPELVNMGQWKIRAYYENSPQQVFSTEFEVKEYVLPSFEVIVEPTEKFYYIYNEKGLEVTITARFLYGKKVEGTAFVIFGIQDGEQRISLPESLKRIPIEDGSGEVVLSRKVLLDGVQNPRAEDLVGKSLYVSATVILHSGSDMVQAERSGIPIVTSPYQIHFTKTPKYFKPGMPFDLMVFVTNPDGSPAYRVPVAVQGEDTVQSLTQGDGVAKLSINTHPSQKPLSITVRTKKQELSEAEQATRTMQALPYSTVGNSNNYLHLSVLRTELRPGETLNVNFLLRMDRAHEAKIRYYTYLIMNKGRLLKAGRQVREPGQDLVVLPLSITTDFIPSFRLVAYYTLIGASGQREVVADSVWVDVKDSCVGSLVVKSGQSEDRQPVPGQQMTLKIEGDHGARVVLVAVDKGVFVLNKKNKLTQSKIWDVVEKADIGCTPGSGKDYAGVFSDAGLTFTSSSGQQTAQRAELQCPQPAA
# T1 sequence (P01024 749-1663 limits assumed): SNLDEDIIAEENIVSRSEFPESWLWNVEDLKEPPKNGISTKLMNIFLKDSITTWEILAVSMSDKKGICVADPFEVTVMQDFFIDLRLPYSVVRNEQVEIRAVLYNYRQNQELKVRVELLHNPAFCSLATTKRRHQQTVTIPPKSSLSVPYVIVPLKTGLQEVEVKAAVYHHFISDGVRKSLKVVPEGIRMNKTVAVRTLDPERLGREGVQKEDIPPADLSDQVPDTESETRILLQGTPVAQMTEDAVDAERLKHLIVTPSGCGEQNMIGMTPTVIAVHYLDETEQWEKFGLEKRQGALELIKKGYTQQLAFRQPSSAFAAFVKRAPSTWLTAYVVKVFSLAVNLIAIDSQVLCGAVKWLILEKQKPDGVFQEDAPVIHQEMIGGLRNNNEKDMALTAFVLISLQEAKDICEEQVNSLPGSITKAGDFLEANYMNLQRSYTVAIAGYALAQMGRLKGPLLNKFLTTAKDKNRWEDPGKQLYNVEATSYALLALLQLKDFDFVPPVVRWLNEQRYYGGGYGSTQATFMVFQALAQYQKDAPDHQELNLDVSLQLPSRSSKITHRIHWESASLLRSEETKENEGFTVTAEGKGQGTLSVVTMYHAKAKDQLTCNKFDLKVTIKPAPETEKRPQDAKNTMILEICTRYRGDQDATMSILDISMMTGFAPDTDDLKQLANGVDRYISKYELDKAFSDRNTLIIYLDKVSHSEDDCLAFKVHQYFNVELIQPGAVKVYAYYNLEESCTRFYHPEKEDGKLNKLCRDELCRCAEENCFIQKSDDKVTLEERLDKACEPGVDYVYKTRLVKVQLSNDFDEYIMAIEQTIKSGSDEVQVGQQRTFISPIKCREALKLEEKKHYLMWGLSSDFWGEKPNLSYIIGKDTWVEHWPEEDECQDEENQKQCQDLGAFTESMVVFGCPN
# Description: as §3
# Alternative Pathway (AP) = assay: Hemolytic assay, rabbit erythrocytes in human serum; type: cell-based; conditions: MgEGTA, read-out: IC50 (nM) Alternative Pathway Hemolysis
# Excerpt: The Alternative Pathway (AP) in human serum samples is spontaneously activated by rabbit erythrocytes. Since AP activation requires higher concentrations of serum, the Classical Pathway needs to be blocked with MgEGTA to chelate Ca2+ ions (AP only requires Mg2+ ions). AP activation results in C3 activation and subsequent formation of the Membrane Attack Complex (MAC). The MAC assembles on the membrane of rabbit erythrocytes leading to cell lysis. The level of hemoglobin released from lysed erythrocytes is measured at OD 414 nm and is proportional to the complement activity present in the serum sample.
# [2] = Table 19, SPR, read-out: Affinity human C3
# [3] = Table 20, SPR, read-out: KD (nM) C3
# [4] = Table 19, SPR, read-out: Affinity human C3b
# [5] = Table 20, SPR, read-out: KD (nM) C3b
molecule,measurement,setting,value
"Clone I: humanized anti-C3 scFv, VH SEQ ID NO: 20, VL SEQ ID NO: 21; scFv SEQ ID NO: 26 or 27 (antibody, V domains shown, VH; VL) VH: QVQLVESGGGSVQPGRSLRLSCAASGFTFSNYAMNWVRQAPGKGLEWVAVISYDGSNKYYADSVKGRFTISRDNSKNTLYLQMNSLRAEDTASYYCARAVGYHHARLDPWGCGTSVTVSS VL: QLVLTQSPSASASLGASVKLTCTLSSAHKTYTIDWYQQQPEKCPRYLMQLKSDGSYTKGSGIPDRFSGSSSGAERYLTISSLQSEDEADYYCGTEGVGGYVFGGGTKLTVLG",IC50,Classical Pathway,79 nM
same,Serum samples with pre-existing ADA,pre-existing ADA,9 out of 50
same,IC50,Lectin Pathway,67 nM
same,IC50,Alternative Pathway,344 nM
same,Kd,"human C3; Table 16, read-out: C3 (Kd)",0.16 nM
same,Kd,human C3; [2],0.152 nM
same,Kd,human C3; [3],0.152 nM
same,kd C3,human C3,4.7e-05 s⁻¹
same,ka C3,human C3,310000 M⁻¹ s⁻¹
same,Starting charge purity (IEX-HPLC),[1],98.07%
same,"Storage stability, IEX 4 weeks at 25° C. [D %]",[1],1.1 D %
same,"Storage stability, IEX 4 weeks at 40° C. [D %]",[1],2.4 D %
same,Kd,"human C3b; Table 16, read-out: C3b (Kd)",0.14 nM
same,Kd,human C3b; [4],0.149 nM
same,Kd,human C3b; [5],0.149 nM
same,kd C3b,human C3b,4.8e-05 s⁻¹
same,ka C3b,human C3b,320000 M⁻¹ s⁻¹
same,IC50,Alternative Pathway (AP),705 nM
"Clone II: humanized anti-C3 scFv, VH SEQ ID NO: 22, VL SEQ ID NO: 23; scFv SEQ ID NO: 28 or 29 (antibody, V domains shown, VH; VL) VH: QVQLVESGGGSVQPGRSLRLSCAASGFTFSNYAMNWVRQAPGKGLEWVAIINVGGGTNYADSVKGRFTISRDNSKNTLYLQMNSLRAEDTASYYCARAVGYHHARLDPWGCGTSVTVSS VL: QLVLTQSPSASASLGASVKLTCTLSSAHKTYTIDWYQQQPEKCPRYLMQLKSDGSYTKGSGIPDRFSGSSSGAERYLTISSLQSEDEADYYCGTEGVGGYVFGGGTKLTVLG",IC50,Classical Pathway,77 nM
same,IC50,Lectin Pathway,71 nM
same,IC50,Alternative Pathway,360 nM
same,Kd,human C3; [2],0.022 nM
same,Kd,human C3; [3],0.022 nM
same,kd C3,human C3,5.5e-06 s⁻¹
same,ka C3,human C3,250000 M⁻¹ s⁻¹
same,Starting charge purity (IEX-HPLC),[1],97.16%
same,"Storage stability, IEX 4 weeks at 25° C. [D %]",[1],0.5 D %
same,"Storage stability, IEX 4 weeks at 40° C. [D %]",[1],3.3 D %
same,Kd,human C3b; [4],0.05 nM
same,Kd,human C3b; [5],0.05 nM
same,kd C3b,human C3b,1.2e-05 s⁻¹
same,ka C3b,human C3b,250000 M⁻¹ s⁻¹
same,IC50,Alternative Pathway (AP),668 nM

# Source: US12344663B2, “Anti-C3 antibodies and antigen-binding fragments thereof and their uses for treating eye or ocular diseases” (CDR-Life AG, priority 2021, dated 2025)
